{"source": "paper PMC8463877", "about": "(2021)", "binders": {"B1": {"name": "GFP-labeled αB-crystallin (αB-c-TEV site-GFP-His tag) (natural protein)", "chain": "MDIAIHHPWIRRPFFPFHSPSRLFDQFFGEHLLESDLFPTSTSLSPFYLRPPSFLRAPSWFDTGLSEMRLEKDRFSVNLDVKHFSPEELKVKVLGDVIEVHGKHEERQDEHGFISREFHRKYRIPADVDPLTITSSLSSDGVLTVNGPRKQVSGPERTIPITREEKPAVTAAPKK"}}, "key": {"[1]": {"biological_target": "T1, α-synuclein amyloid fibrils (unlabeled) (UniProt P37840 1-140)", "test": "37 °C"}, "[2]": {"biological_target": "T1, α-synuclein amyloid fibrils (unlabeled)", "test": "30 °C"}, "[3]": {"biological_target": "T1, α-synuclein amyloid fibrils (unlabeled)", "test": "10 °C"}, "[4]": {"biological_target": "T1, α-synuclein amyloid fibrils (unlabeled)", "test": "7 °C"}, "[5]": {"biological_target": "T1, α-synuclein amyloid fibrils (unlabeled)", "test": "17 °C"}}}
{"binder": "B1", "values": [{"measurement": "Kd", "setting": "[1]", "result": "< 0.0103", "unit": "µM"}, {"measurement": "Kd", "setting": "[2]", "result": 0.0575, "unit": "µM"}, {"measurement": "Kd", "setting": "[3]", "result": 12.3, "unit": "µM"}, {"measurement": "Kd", "setting": "[4]", "result": 45.3, "unit": "µM"}, {"measurement": "Kd", "setting": "[5]", "result": 6.1, "unit": "µM"}]}
